According to patent US20110070246A1 (F HOFFMANN LAROCHE, published 2011):

T1: Soluble extracellular domain (ECD) of human CDCP1 (human, UniProt Q9H5V8 30-663)
T1 construct: also called CDCP1-ECD; hCDCP1-ECD
T1 sequence: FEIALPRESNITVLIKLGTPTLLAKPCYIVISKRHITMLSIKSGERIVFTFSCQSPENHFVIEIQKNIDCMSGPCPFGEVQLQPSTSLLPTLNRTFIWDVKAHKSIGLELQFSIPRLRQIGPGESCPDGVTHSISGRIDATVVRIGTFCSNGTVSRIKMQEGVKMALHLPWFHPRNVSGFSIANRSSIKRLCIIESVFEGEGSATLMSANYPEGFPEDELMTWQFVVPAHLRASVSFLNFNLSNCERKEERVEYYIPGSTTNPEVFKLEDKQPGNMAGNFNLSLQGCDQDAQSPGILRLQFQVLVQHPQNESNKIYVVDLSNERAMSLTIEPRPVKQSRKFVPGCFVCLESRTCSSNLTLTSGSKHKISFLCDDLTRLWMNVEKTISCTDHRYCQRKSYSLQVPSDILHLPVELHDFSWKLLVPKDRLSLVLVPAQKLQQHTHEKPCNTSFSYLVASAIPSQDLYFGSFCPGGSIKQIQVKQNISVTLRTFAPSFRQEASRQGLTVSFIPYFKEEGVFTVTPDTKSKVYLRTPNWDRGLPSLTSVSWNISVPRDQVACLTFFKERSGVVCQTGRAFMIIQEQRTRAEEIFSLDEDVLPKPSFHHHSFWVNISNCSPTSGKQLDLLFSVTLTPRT

B1: Mab CDCP1-015 (antibody, V domains shown)
VH: QVHLKQSGPGLVQPSQSLSITCTVSGFSLTNFGLHWVRQSPGKGLEWLGVIWSGGVTDYNAAFISRLSISKDNSKSQVFFKMNSLQPNDTAIYYCARNYDHDYSMDYWGQGISVSVSS
VL: DVVLTQTPLSLPVIIGDQASISCKSTKSLLNSAGFTYLGWYLQKPGQSPQLLIYLVSNRFSGVPDRFSGSGSGTDFTLKISRVEAEDLGVYFCFQSSYLPLTFGSGTKLEIK
notes: also called CDCP1-0015; Murine CDCP1-015
B2: CUB4 antibody (Deposition No. DSM ACC2551), murine (antibody, V domains shown)
VH: EVQLVESGGDLVKPGGSLKLSCAASGFTFNSYGMSWVRQTPDKRLEWVATISSGGSYTYYPDSVKGRFTISRDNAKNTLYLQMSSLKSEDTAMYYCARHPDYDGVWFAYWGQGTLVTVSA
VL: QIVLTQSPAIMSASPGEKVTMTCSVSSSVFYVHWYQQKSGTSPKRWIYDTSKLASGVPARFSGSGSGTSYSLTISSMEAEDAATYYCQQWNSNPPTFGGGTKLEIK
notes: Deposited murine monoclonal antibody; also called Mab CUB4; murine CUB4

Experiments:
[1] = molecular target: Short5 (hu CDCP1_SH5_ECD (aa 1-361)_SBP) (human) (UniProt Q9H5V8); assay: ELISA, SBP-CDCP1-Short5 captured on a streptavidin plate, antibody 0.1 ug in 50 ul, goat anti-mouse IgG-HRP, absorbance 370 nm/492 nm; the same antibody on Medium coating: 0,2330
[2] = molecular target: Short1 (huCDCP1_SH1_ECD aa1-216)_SBP (human) (UniProt Q9H5V8); assay: ELISA, SBP-CDCP1-Short1 captured on a streptavidin plate, antibody 0.1 ug in 50 ul, goat anti-mouse IgG-HRP, absorbance 370 nm/492 nm; the same antibody on Medium coating: 0,2330
[3] = molecular target: T1, Soluble extracellular domain (ECD) of …; assay: Biacore SPR, immobilized hCDCP1-ECD
[4] = molecular target: Short1 (huCDCP1_SH1_ECD aa1-216)_SBP (human) (UniProt Q9H5V8); assay: ELISA, SBP-CDCP1-Short1 captured on a streptavidin plate, antibody 0.1 ug in 50 ul, goat anti-mouse IgG-HRP, absorbance 370 nm/492 nm; the same antibody on Medium coating: 0,0420
[5] = molecular target: Short5 (hu CDCP1_SH5_ECD (aa 1-361)_SBP) (human) (UniProt Q9H5V8); assay: ELISA, SBP-CDCP1-Short5 captured on a streptavidin plate, antibody 0.1 ug in 50 ul, goat anti-mouse IgG-HRP, absorbance 370 nm/492 nm; the same antibody on Medium coating: 0,0420

Binder | Absorption [1] | Absorption [2] | Kd [3] | koff [3] | kon [3] | Absorption [4] | Absorption [5]
B1 | 1.49 | 1.3 | 0.47 nM | 0.00022 s⁻¹ | 460000 M⁻¹ s⁻¹ |  | 
B2 |  |  | 0.52 nM | 0.00052 s⁻¹ | 990000 M⁻¹ s⁻¹ | 0.787 | 1.04
